The target of assay [1] is T1, iASPP Ank-SH3 (Homo sapiens, UniProt Q8WUF5).
T1 construct: (2) iASPP Ank-SH3 603-828; HLT tag (His tag + lipoyl domain + TEV site) (N, cleaved yes); made in house; host or cells: E. coli HMS 174 (Novagen)
T1 sequence (Q8WUF5 603-828): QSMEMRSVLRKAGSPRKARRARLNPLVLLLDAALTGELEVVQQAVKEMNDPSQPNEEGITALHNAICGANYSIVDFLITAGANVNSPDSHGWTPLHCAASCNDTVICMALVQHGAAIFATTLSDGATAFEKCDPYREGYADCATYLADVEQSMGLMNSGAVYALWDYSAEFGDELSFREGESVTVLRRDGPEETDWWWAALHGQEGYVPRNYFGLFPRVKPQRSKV
The assay is described as follows: Fluorescence anisotropy binding of fluorescein-labeled iASPP Pro derived peptides to iASPP Ank-SH3. The conditions noted are these: 250 μM iASPP Ank-SH3 titrated into 100 nM fluorescein-labeled peptide, 10 °C, 20 mM Hepes pH 7.3, ionic strength 50 mM. How it is done: Binding of the iASPP Pro-derived peptides to iASPP Ank-SH3 was measured by fluorescence anisotropy using a PerkinElmer Life Sciences LS-50b spectrofluorimeter equipped with a Hamilton microlab M dispenser. Titration of iASPP Ank-SH3 into iASPP Pro derived fluorescein-labeled (FL) peptides was performed at 10 °C in 20 mM Hepes buffer, pH 7.3, 43 mM NaCl (total ionic strength = 50 mM), 10% glycerol and 5 mM β-mercaptoethanol. The excitation wavelength was set at 480 nm and the emission measured at 530 nm. The labeled peptide, dissolved in 1 ml buffer to a final concentration of 100 nM, was placed in the cuvette. 250 μM iASPP Ank-SH3 was placed in the dispenser and aliquots of 10–20 μl were added at 1.5 min intervals. The solution was then stirred for 30 sec, and the fluorescence and anisotropy were measured. Data were analyzed using the program Origin8 (OriginLab) and were fit to 1:1 binding model:
[drawing 1] (R- measured fluorescence anisotropy, R0- anisotropy value corresponding to the free peptide, ∆R- amplitude of the fluorescence anisotropy change, [Protein]- protein concentration, Kd- dissociation constant).

For assay [2], the target named is T2, HLT-iASPP Ank-SH3 (human, UniProt Q8WUF5 603-828).
T2 construct: iASPP (human), four ankyrin repeats and SH3 domain, residues 603-828, Swiss-Prot Q8WUF5; Detected on the arrays by its His tag (anti His HRP antibody); source: E. coli HMS 174, purified (Nickel Sepharose, size exclusion chromatography); not shown: HLT (His tag, lipoyl domain, TEV protease cleavage site), N-terminal, kept
T2 sequence (looked up): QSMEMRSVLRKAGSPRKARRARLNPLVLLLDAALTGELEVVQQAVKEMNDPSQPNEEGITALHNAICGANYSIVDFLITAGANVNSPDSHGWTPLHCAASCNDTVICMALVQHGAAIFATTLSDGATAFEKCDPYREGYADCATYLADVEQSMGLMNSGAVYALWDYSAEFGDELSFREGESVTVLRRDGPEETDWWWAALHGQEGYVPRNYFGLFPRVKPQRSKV
The assay is described as follows: peptide or protein array; CelluSpots array of 79 partly overlapping 15-residue iASPP Pro peptides on cellulose; 5 uM HLT-iASPP Ank-SH3 in 20 mM phosphate pH 7.0, ionic strength 150 mM, 5 mM βME, 10% glycerol, 2.5% skimmed milk; 4 °C overnight; detected with anti His HRP antibody. Particulars: both partners purified.

cellulose membrane = C-terminus attached to a cellulose membrane (CelluSpots array) through an amide bond

With “FFPERGPSPRPPATA [iASPP 196-210, iASPP Pro derived peptide, residues 196-210]”, the “binding to iASPP Ank-SH3 (in words)” value in assay [1] is given as “no binding”.

Turning to “VARPLSPTRLQPALP [iASPP 484-498, iASPP Pro derived peptide, residues 484-498]”, the “binding to iASPP Ank-SH3 (in words)” value in assay [1] is reported as “too weak to quantify”.

On to “APSPRPGPGPLRQQG [iASPP 156-170, iASPP Pro derived peptide, residues 156-170]”, for which the “binding to iASPP Ank-SH3 (in words)” value in assay [1] is given as “no binding”.

As for “PRYSSSSIPEPFGSR [iASPP 68-82, iASPP Pro derived peptide, residues 68-82]”, the “binding to iASPP Ank-SH3 (in words)” value in assay [1] was “no binding”.

Turning to “PTPFDFLGRAGSPRG [iASPP 172-186, iASPP Pro derived peptide, residues 172-186]”, the “binding to iASPP Ank-SH3 (in words)” value in assay [1] was “too weak to quantify”.

Take “PLFTRAPPPKLQPQP [iASPP 396-410, iASPP Pro derived peptide, residues 396-410]”: the “binding to iASPP Ank-SH3 (in words)” value in assay [1] is “too weak to quantify”.

As to “SDAGSYRRSLGSAGP [iASPP 324-338, iASPP Pro derived peptide, residues 324-338]”, the “binding to iASPP Ank-SH3 (in words)” value in assay [1] is recorded as “no binding”.

Consider “TLPRNYKVSPLASDR [iASPP 308-322, iASPP Pro derived peptide, residues 308-322]”, for which, in assay [1], the “binding to iASPP Ank-SH3 (in words)” value is recorded as “no binding”.

For “YGSLDRATSPRPRAF [iASPP 132-146, iASPP Pro derived peptide, residues 132-146]”, in assay [1], the “binding to iASPP Ank-SH3 (in words)” value was “too weak to quantify”.

B1: iASPP Pro array peptide 540-554 (spot D3) (peptide)
peptide: Ac-KKQYQQIISRLFHRH-{cellulose membrane}
modifications: also: C-terminus bound to cellulose membrane via amide
notes: iASPP (human) residues 540-554; source: synthetic peptide on CelluSpots array (INTAVIS)
Take B1: the binding result in assay [2] is “binds”.

B2: iASPP Pro array peptide 548-562 (spot D4) (peptide)
peptide: Ac-SRLFHRHGGPGPGGP-{cellulose membrane}
modifications: also: C-terminus bound to cellulose membrane via amide
notes: iASPP (human) residues 548-562; source: synthetic peptide on CelluSpots array (INTAVIS)
Regarding B2, the binding result in assay [2] is on record as “binds”.

B3: iASPP Pro array peptide 388-402 (spot C7) (peptide)
peptide: Ac-SRAMLPGSPLFTRAP-{cellulose membrane (amide bond)}
modifications: also: C-terminus bound to cellulose membrane via amide
notes: iASPP (human) residues 388-402; source: synthetic peptide on CelluSpots array (INTAVIS)
With B3, the binding result in assay [2] is given as “binds”.

B4: iASPP Pro array peptide 348-362 (spot C2) (peptide)
peptide: Ac-PVSRIPMPPSSPQPR-{cellulose membrane (amide bond)}
modifications: also: C-terminus bound to cellulose membrane via amide
notes: iASPP (human) residues 348-362; source: synthetic peptide on CelluSpots array (INTAVIS)
Take B4: in assay [2], the binding result was “binds”.

B5: iASPP Pro array peptide 396-410 (spot C8) (peptide)
peptide: Ac-PLFTRAPPPKLQPQP-{cellulose membrane (amide bond)}
modifications: also: C-terminus bound to cellulose membrane via amide
notes: iASPP (human) residues 396-410; source: synthetic peptide on CelluSpots array (INTAVIS)
In the case of B5, the binding result in assay [2] is on record as “binds”.

B6: iASPP Pro array peptide 68-82 (spot A15) (peptide)
peptide: Ac-PRYSSSSIPEPFGSR-{cellulose membrane}
modifications: also: C-terminus bound to cellulose membrane via amide
notes: iASPP (human) residues 68-82; source: synthetic peptide on CelluSpots array (INTAVIS)
In the case of B6, in assay [2], the binding result is on record as “binds”.

B7: iASPP Pro array peptide 148-162 (spot B1) (peptide)
peptide: Ac-GAGSSLGRAPSPRPG-{cellulose membrane (amide bond)}
modifications: also: C-terminus bound to cellulose membrane via amide
notes: iASPP (human) residues 148-162; source: synthetic peptide on CelluSpots array (INTAVIS)
B7: in assay [2], the binding result is listed as “binds”.

B8: iASPP Pro array peptide 308-322 (spot B21) (peptide)
peptide: Ac-TLPRNYKVSPLASDR-{cellulose membrane (amide bond)}
modifications: also: C-terminus bound to cellulose membrane via amide
notes: iASPP (human) residues 308-322; source: synthetic peptide on CelluSpots array (INTAVIS)
As for B8, in assay [2], the binding result was “binds”.

B9: iASPP Pro array peptide 484-498 (spot C19) (peptide)
peptide: Ac-VARPLSPTRLQPALP-{cellulose membrane}
modifications: also: C-terminus bound to cellulose membrane via amide
notes: iASPP (human) residues 484-498; source: synthetic peptide on CelluSpots array (INTAVIS)
Turning to B9, the binding result in assay [2] is “binds”.

B10: iASPP Pro array peptide 604-618 (spot D11) (peptide)
peptide: Ac-SMEMRSVLRKAGSPR-{cellulose membrane}
modifications: also: C-terminus bound to cellulose membrane via amide
notes: iASPP (human) residues 604-618; also called iASPP 604-618; source: synthetic peptide on CelluSpots array (INTAVIS)
Consider B10, for which the binding result in assay [2] is listed as “binds”.

B11: iASPP Pro array peptide 196-210 (spot B7) (peptide)
peptide: Ac-FFPERGPSPRPPATA-{cellulose membrane (amide bond)}
modifications: also: C-terminus bound to cellulose membrane via amide
notes: iASPP (human) residues 196-210; source: synthetic peptide on CelluSpots array (INTAVIS)
Take B11: in assay [2], the binding result is recorded as “binds”.

B12: iASPP Pro array peptide 340-354 (spot C1) (peptide)
peptide: Ac-GTLPRSWQPVSRIPM-{cellulose membrane (amide bond)}
modifications: also: C-terminus bound to cellulose membrane via amide
notes: iASPP (human) residues 340-354; source: synthetic peptide on CelluSpots array (INTAVIS)
As to B12, the binding result in assay [2] is “binds”.

B13: iASPP Pro array peptide 156-170 (spot B2) (peptide)
peptide: Ac-APSPRPGPGPLRQQG-{cellulose membrane (amide bond)}
modifications: also: C-terminus bound to cellulose membrane via amide
notes: iASPP (human) residues 156-170; source: synthetic peptide on CelluSpots array (INTAVIS)
As for B13, the binding result in assay [2] is listed as “binds”.

B14: iASPP Pro array peptide 132-146 (spot A23) (peptide)
peptide: Ac-YGSLDRATSPRPRAF-{cellulose membrane (amide bond)}
modifications: also: C-terminus bound to cellulose membrane via amide
notes: iASPP (human) residues 132-146; source: synthetic peptide on CelluSpots array (INTAVIS)
As to B14, in assay [2], the binding result was “binds”.

B15: iASPP Pro array peptide 60-74 (spot A14) (peptide)
peptide: Ac-QAGPPSRPPRYSSSS-{cellulose membrane}
modifications: also: C-terminus bound to cellulose membrane via amide
notes: iASPP (human) residues 60-74; source: synthetic peptide on CelluSpots array (INTAVIS)
In the case of B15, in assay [2], the binding result is recorded as “binds”.

B16: iASPP Pro array peptide 356-370 (spot C3) (peptide)
peptide: Ac-PSSPQPRGAPRQRPI-{cellulose membrane (amide bond)}
modifications: also: C-terminus bound to cellulose membrane via amide
notes: iASPP (human) residues 356-370; source: synthetic peptide on CelluSpots array (INTAVIS)
On to B16, for which the binding result in assay [2] is on record as “binds”.

B17: iASPP Pro array peptide 172-186 (spot B4) (peptide)
peptide: Ac-PTPFDFLGRAGSPRG-{cellulose membrane (amide bond)}
modifications: also: C-terminus bound to cellulose membrane via amide
notes: iASPP (human) residues 172-186; source: synthetic peptide on CelluSpots array (INTAVIS)
For B17, in assay [2], the binding result was “binds”.

B18: iASPP Pro array peptide 380-394 (spot C6) (peptide)
peptide: Ac-NAFWEHGASRAMLPG-{cellulose membrane (amide bond)}
modifications: also: C-terminus bound to cellulose membrane via amide
notes: iASPP (human) residues 380-394; source: synthetic peptide on CelluSpots array (INTAVIS)
With B18, in assay [2], the binding result is “binds”.

B19: iASPP Pro array peptide 324-338 (spot B23) (peptide)
peptide: Ac-SDAGSYRRSLGSAGP-{cellulose membrane (amide bond)}
modifications: also: C-terminus bound to cellulose membrane via amide
notes: iASPP (human) residues 324-338; source: synthetic peptide on CelluSpots array (INTAVIS)
Take B19: in assay [2], the binding result is recorded as “binds”.

These data come from PMC4486954, “Highly homologous proteins exert opposite biological activities by using different interaction interfaces” (Scientific Reports, 2015).
